From PMC12591160, “Polyadenylation Complex CFII Recognizes Downstream Cis‐element for Pre‐mRNA Polyadenylation Through Interaction with an RNA‐Binding Protein in Arabidopsis”

Columns and labels:
[1] = biological target: T1, MBP-FPARRM-His (three RRM domains of FPA) (Arabidopsis thaliana, UniProt Q8LPQ9 1-307); experiment: ITC; 25 C, 150 mM NaCl, pH 8.0; EMSA: 10 mM HEPES-KOH pH 7.3, 20 mM KCl, 1 mM MgCl2, 1 mM DTT, 5% glycerol, 0.1 ug/uL tRNA, room temperature 30 min (protein eluted with 200 mM imidazole); ITC: 10 mM HEPES-KOH pH 8.0, 150 mM NaCl, 200 mM imidazole, 25 C; settings: protein: recombinant; tags: MBP (pMAL-c2x), 6xHis
T1 sequence: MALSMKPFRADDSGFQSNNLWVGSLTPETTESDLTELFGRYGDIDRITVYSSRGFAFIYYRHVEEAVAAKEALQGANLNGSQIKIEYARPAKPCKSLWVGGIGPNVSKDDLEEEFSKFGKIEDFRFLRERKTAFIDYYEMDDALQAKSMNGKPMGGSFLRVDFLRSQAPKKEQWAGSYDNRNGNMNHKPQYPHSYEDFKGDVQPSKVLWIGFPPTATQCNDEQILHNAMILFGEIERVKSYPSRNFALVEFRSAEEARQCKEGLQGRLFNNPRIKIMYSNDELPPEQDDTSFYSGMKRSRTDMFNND

[2] = biological target: T2, MBP-FCARRM-His (RRM domains of FCA) (UniProt O04425 1-343); experiment: EMSA; 2 nM probe, 600 nM protein; EMSA: 10 mM HEPES-KOH pH 7.3, 20 mM KCl, 1 mM MgCl2, 1 mM DTT, 5% glycerol, 0.1 ug/uL tRNA, room temperature 30 min (protein eluted with 200 mM imidazole); ITC: 10 mM HEPES-KOH pH 8.0, 150 mM NaCl, 200 mM imidazole, 25 C; settings: protein: recombinant; tags: MBP (pMAL-c2x), 6xHis; label: Biotin at both ends
T2 sequence: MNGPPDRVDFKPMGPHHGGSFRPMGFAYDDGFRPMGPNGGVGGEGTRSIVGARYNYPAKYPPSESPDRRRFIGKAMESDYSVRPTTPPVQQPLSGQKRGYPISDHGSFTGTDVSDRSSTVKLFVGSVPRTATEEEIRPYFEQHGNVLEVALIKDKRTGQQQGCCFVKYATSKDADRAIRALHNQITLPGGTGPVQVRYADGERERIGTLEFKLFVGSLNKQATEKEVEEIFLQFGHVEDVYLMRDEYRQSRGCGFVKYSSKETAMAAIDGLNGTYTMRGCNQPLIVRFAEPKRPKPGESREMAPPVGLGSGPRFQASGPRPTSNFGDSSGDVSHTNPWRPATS

[3] = biological target: T1, MBP-FPARRM-His (three RRM domains of …); experiment: as above; settings: protein: recombinant; tags: MBP (pMAL-c2x), 6xHis; label: Biotin at both ends
[4] = biological target: T1, MBP-FPARRM-His (three RRM domains of …); experiment: EMSA; 2 nM probe, 2000 nM protein; EMSA: 10 mM HEPES-KOH pH 7.3, 20 mM KCl, 1 mM MgCl2, 1 mM DTT, 5% glycerol, 0.1 ug/uL tRNA, room temperature 30 min (protein eluted with 200 mM imidazole); ITC: 10 mM HEPES-KOH pH 8.0, 150 mM NaCl, 200 mM imidazole, 25 C; settings: protein: recombinant; tags: MBP (pMAL-c2x), 6xHis; label: Biotin at both ends
[5] = biological target: T2, MBP-FCARRM-His (RRM domains of FCA); experiment: competition; unlabeled GU-rich competes labeled GU-rich probe; EMSA: 10 mM HEPES-KOH pH 7.3, 20 mM KCl, 1 mM MgCl2, 1 mM DTT, 5% glycerol, 0.1 ug/uL tRNA, room temperature 30 min (protein eluted with 200 mM imidazole); ITC: 10 mM HEPES-KOH pH 8.0, 150 mM NaCl, 200 mM imidazole, 25 C; settings: protein: recombinant; tags: MBP (pMAL-c2x), 6xHis

B1: GA-rich RNA (unlabeled; ITC and competitor) (ssRNA)
RNA: GAAGAGAAGAAGAGAAGAAGAGAA
B1 was tested, and the Kd [1] was ~20 µM.

B2: GU-rich probe (EMSA, biotin) (ssRNA)
RNA: GUUGUUUUGUUUGUUGUUUUGUUU
B2: binds [2]; no binding [3].

B3: UC-rich probe (antisense of GA-rich; EMSA, biotin) (ssRNA)
RNA: UUCUCUUCUUCUCUUCUUCUCUUC
B3: no binding [4].

B4: GU-rich RNA (unlabeled; ITC and competitor) (ssRNA)
RNA: GUUGUUUUGUUUGUUGUUUUGUUU
B4: no binding [1]; binds [5].
